Assay results: article PMC4169592

Target: EGFP-Vinexin β (mouse)
Experiment: FRET or BRET; acceptor photobleaching FRET in stress granules of live COS-7 cells; EGFP donor, mCherry RFP acceptor

RFP-CPEB4 (natural protein)
FRET efficiency: 14.5%
